Source: patent publication US20170015742A1 (published 2017)

Experiments:
[1] = target: T1, PDGF-BB (recombinant; human PDGF-BB) (human, UniProt P01127 82-190, limits assumed); experiment: Biacore SPR; binding protein captured on goat anti-human Fc, antigen injected (Example 1.1)
T1 construct: PDGF-BB is a homodimer of two B chains; also called hPDGF-BB

[2] = target: T2, VEGF-A (recombinant; human VEGF-A 165) (human, UniProt P15692 207-395); experiment: as above
T2 construct: also called hVEGF165
T2 sequence (P15692 other isoform, or with tags, fused parts or gaps limits assumed): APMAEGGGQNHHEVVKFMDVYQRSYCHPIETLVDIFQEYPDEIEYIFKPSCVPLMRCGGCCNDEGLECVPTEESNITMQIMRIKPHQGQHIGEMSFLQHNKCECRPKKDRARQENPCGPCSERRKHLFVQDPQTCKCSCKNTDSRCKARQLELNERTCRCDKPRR

[3] = target: recombinant human VEGF165 (human, UniProt P15692 207-395); experiment: cell-based or functional assay
[4] = target: recombinant human PDGF-BB (human, UniProt P01127 82-190); experiment: cell-based or functional assay
Sequence of recombinant human PDGF-BB (P01127 82-190 limits assumed): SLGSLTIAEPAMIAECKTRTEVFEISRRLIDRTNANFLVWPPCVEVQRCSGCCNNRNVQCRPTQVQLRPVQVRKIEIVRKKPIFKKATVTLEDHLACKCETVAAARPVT

Human VEGF-A 121 = target: T3, Human VEGF-A 121 (human, UniProt P15692 207-395); experiment: SPR (Biacore), summary table
T3 construct: also called hVEGF121
T3 sequence: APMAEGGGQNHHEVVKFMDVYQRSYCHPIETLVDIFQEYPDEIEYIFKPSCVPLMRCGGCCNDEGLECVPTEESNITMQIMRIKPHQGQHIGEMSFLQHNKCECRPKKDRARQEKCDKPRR
Method: (§1) Unreacted moieties on the biosensor surface were blocked with ethanolamine. For kinetic analysis, rate equations derived from the 1:1 Langmuir binding model were fitted simultaneously to multiple antigen injections (using global fit analysis) with the use of Scrubber 2 (BioLogic Software), Biacore Biaevaluation 4.0.1 software or Biacore T100 Evaluation software. Purified antibodies or DVD-Ig molecules were diluted in running buffer for capture across goat anti-human Fc reaction surfaces. Antibodies or DVD-Ig molecules to be captured as a ligand (1 μg/ml) were injected over reaction matrices at a flow rate of 10 μl/minute. During the assay, all measurements were referenced against the capture surface alone (i.e., with no captured antibody or DVD-Ig molecule). […] The equilibrium dissociation constant KD (M) of the reaction between antibodies and the target antigen was then calculated from the kinetic rate constants by the following formula: KD=Koff/Kₒₙ. Binding was recorded as a function of time and kinetic rate constants were calculated. In this assay, on-rates as fast as 10⁶M⁻¹s⁻¹ and off-rates as slow as 10⁻⁶ s⁻¹ could be measured.

Human VEGF-A 165 = target: T4, Human VEGF-A 165 (human, UniProt P15692 207-395); experiment: SPR (Biacore), summary table
T4 construct: also called hVEGF165
Method: as §1

Human PDGF-BB, soluble = target: T5, Human PDGF-BB, soluble (human, UniProt P01127 82-190); experiment: SPR (Biacore), summary table
T5 construct: also called hPDGF-BB; soluble PDGF-BB
T5 sequence (P01127 82-190 limits assumed): as the sequence (P01127 82-190 limits assumed) above
Method: as §1

Human VEGF-A 111 = target: T6, Human VEGF-A 111 (human, UniProt P15692-10 27-137); experiment: SPR (Biacore), summary table
T6 construct: not used because the names differ; also called hVEGF111
T6 sequence (looked up): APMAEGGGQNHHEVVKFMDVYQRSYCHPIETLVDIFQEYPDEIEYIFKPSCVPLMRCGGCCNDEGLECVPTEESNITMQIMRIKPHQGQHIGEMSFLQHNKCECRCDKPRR
Method: as §1

rat PDGF-B (PR-1645048) = target: T7, rat PDGF-B (PR-1645048) (rat, UniProt Q05028 74-182); experiment: SPR (Biacore), DVD-Ig captured by anti-human Fc, antigen injected
T7 construct: Lot 2235300; also called rat PDGF-BB; ratPDGF-BB
T7 sequence (Q05028 74-182 limits assumed): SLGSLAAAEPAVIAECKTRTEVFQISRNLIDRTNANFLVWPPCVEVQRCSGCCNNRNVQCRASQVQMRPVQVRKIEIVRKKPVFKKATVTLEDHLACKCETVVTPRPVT
Method: as §1

T1 sequence (P01127 82-190 limits assumed): as the sequence (P01127 82-190 limits assumed) above

B1: CODV022 (PR-1577056), anti-human VEGF-A/anti-human PDGF-BB cross-over DVD-Ig molecule (bispecific antibody, human IgG1, kappa, L234A L235A)
heavy: EVQLVQSGSELKKPGASVKVSCKASGYTFTNYGMYWVRQAPGQGLEWMGWINTETGKPTYADDFKGRFVFSLDTSVSTAYLQISSLKAEDTAVYYCARTNYYYRSYIFYFDYWGQGTMVTVSSGGGGSGGGEFVLTQSPGTLSLSPGERATLSCERSSGDIGESYVSWYQQKPGQAPRLVIYADDQRPSGIPDRFSGSGSGTDFTLTISRLEPEDFAVYYCQSYDINIDIVFGGGTKVEIKGGGSGASTKGPSVFPLAPSSKSTSGGTAALGCLVKDYFPEPVTVSWNSGALTSGVHTFPAVLQSSGLYSLSSVVTVPSSSLGTQTYICNVNHKPSNTKVDKKVEPKSCDKTHTCPPCPAPEAAGGPSVFLFPPKPKDTLMISRTPEVTCVVVDVSHEDPEVKFNWYVDGVEVHNAKTKPREEQYNSTYRVVSVLTVLHQDWLNGKEYKCKVSNKALPAPIEKTISKAKGQPREPQVYTLPPSREEMTKNQVSLTCLVKGFYPSDIAVEWESNGQPENNYKTTPPVLDSDGSFFLYSKLTVDKSRWQQGNVFSCSVMHEALHNAYTQKSLSLSPGK
light: EVTLRESGPALVKPTQTLTLTCTFSGFSLSTYGMGVGWIRQPPGKALEWLANIWWDDDKYYNPSLKNRLTISKDTSKNQVVLTMTNMDPVDTATYYCARIESIGTTYSFDYWGQGTMVTVSSGGGGSDTVLTQSPATLSLSPGERATLSCRASESVSTHMHWYQQKPGQAPRLLIYGASNLESGVPARFSGSGSGTDFTLTISSLEPEDFAVYFCQQSWNDPFTFGQGTKLEIKGGSRTVAAPSVFIFPPSDEQLKSGTASVVCLLNNFYPREAKVQWKVDNALQSGNSQESVTEQDSKDSTYSLSSTLTLSKADYEKHKVYACEVTHQGLSSPVTKSFNRGEC
notes: Cross-over DVD-Ig: the variable domains of the 4G8.3 (VEGF) and 9E8.4E (PDGF) sites are spread over both chains; also called CO-DVD-Ig
Kd [1]: 0.0042 nM
kon [1]: 3.2e+07 M⁻¹ s⁻¹
Kd [2]: 0.013 nM
kon [2]: 4.5e+06 M⁻¹ s⁻¹

B2: hu VEGF 9E10.1-GS-hu PDGF 33675 [hu IgG1/k] LALA H435A (PR-1610561) (bispecific antibody)
heavy: EIQLVQSGSELKKPGASVKVSCKASGYTFTNYGMYWVKQAPGQGLEYMGWIDTETGRPTYADDFKGRFVFSLDTSVSTAYLQISSLKAEDTAVYFCARWSGDTTGIRGPWFAYWGQGTLVTVSSGGGGSGGGGSEVTLRESGPALVKPTQTLTLTCTFSGFSLSTYGMGVGWIRQPPGKALEWLANIWWDDDKYYNPSLKNRLTISKDTSKNQVVLTMTNMDPVDTATYYCARIESSGPKYSFDYWGQGTMVTVSSASTKGPSVFPLAPSSKSTSGGTAALGCLVKDYFPEPVTVSWNSGALTSGVHTFPAVLQSSGLYSLSSVVTVPSSSLGTQTYICNVNHKPSNTKVDKKVEPKSCDKTHTCPPCPAPEAAGGPSVFLFPPKPKDTLMISRTPEVTCVVVDVSHEDPEVKFNWYVDGVEVHNAKTKPREEQYNSTYRVVSVLTVLHQDWLNGKEYKCKVSNKALPAPIEKTISKAKGQPREPQVYTLPPSREEMTKNQVSLTCLVKGFYPSDIAVEWESNGQPENNYKTTPPVLDSDGSFFLYSKLTVDKSRWQQGNVFSCSVMHEALHNAYTQKSLSLSPGK
light: DIRMTQSPSSLSASVGDRVTIECLASEDIYSDLAWYQQKPGKSPKLLIYNANGLQNGVPSRFSGSGSGTDYSLTISSLQPEDVATYFCQQYNYFPGTFGQGTKLEIKGGSGGGGSGGEIVLTQSPGTLSLSPGERATLSCRASSGSIWYSFVSWYQQKPGQAPRLLIYADDQRASGIPDRFSGSGSGTDFTLTISRLEPEDFAVYYCQSYGINIDVVFGGGTKVEIKRTVAAPSVFIFPPSDEQLKSGTASVVCLLNNFYPREAKVQWKVDNALQSGNSQESVTEQDSKDSTYSLSSTLTLSKADYEKHKVYACEVTHQGLSSPVTKSFNRGEC
Potency IC50 (pM), Human VEGF-A, cellular assay [3]: 145 pM
Potency IC50 (pM), Human PDGF-BB, cellular assay [4]: 34 pM

B3: 9E10.1-GS-33675 anti-VEGF/anti-PDGF DVD-Ig molecule (PR-1610561) (bispecific antibody, human IgG1, kappa, L234A L235A)
heavy: EIQLVQSGSELKKPGASVKVSCKASGYTFTNYGMYWVKQAPGQGLEYMGWIDTETGRPTYADDFKGRFVFSLDTSVSTAYLQISSLKAEDTAVYFCARWSGDTTGIRGPWFAYWGQGTLVTVSSGGGGSGGGGSEVTLRESGPALVKPTQTLTLTCTFSGFSLSTYGMGVGWIRQPPGKALEWLANIWWDDDKYYNPSLKNRLTISKDTSKNQVVLTMTNMDPVDTATYYCARIESSGPKYSFDYWGQGTMVTVSSASTKGPSVFPLAPSSKSTSGGTAALGCLVKDYFPEPVTVSWNSGALTSGVHTFPAVLQSSGLYSLSSVVTVPSSSLGTQTYICNVNHKPSNTKVDKKVEPKSCDKTHTCPPCPAPEAAGGPSVFLFPPKPKDTLMISRTPEVTCVVVDVSHEDPEVKFNWYVDGVEVHNAKTKPREEQYNSTYRVVSVLTVLHQDWLNGKEYKCKVSNKALPAPIEKTISKAKGQPREPQVYTLPPSREEMTKNQVSLTCLVKGFYPSDIAVEWESNGQPENNYKTTPPVLDSDGSFFLYSKLTVDKSRWQQGNVFSCSVMHEALHNAYTQKSLSLSPGK
light: DIRMTQSPSSLSASVGDRVTIECLASEDIYSDLAWYQQKPGKSPKLLIYNANGLQNGVPSRFSGSGSGTDYSLTISSLQPEDVATYFCQQYNYFPGTFGQGTKLEIKGGSGGGGSGGEIVLTQSPGTLSLSPGERATLSCRASSGSIWYSFVSWYQQKPGQAPRLLIYADDQRASGIPDRFSGSGSGTDFTLTISRLEPEDFAVYYCQSYGINIDVVFGGGTKVEIKRTVAAPSVFIFPPSDEQLKSGTASVVCLLNNFYPREAKVQWKVDNALQSGNSQESVTEQDSKDSTYSLSSTLTLSKADYEKHKVYACEVTHQGLSSPVTKSFNRGEC
notes: DVD-Ig: outer domain hBEW-9E10.1 (VEGF), inner domain CL-33675 (PDGF), linkers GS-H10 / GS-L10(dR); human IgG1 L234A, L235A, H435A / kappa; Lot 2213329; also called hu VEGF 9E10.1-GS-hu PDGF 33675 [hu IgG1/k]; LALA H435A
Kd (Human VEGF-A 121): 0.23 nM
Kd (Human VEGF-A 165): 0.065 nM
Kd (Human PDGF-BB, soluble): 0.005 nM
Kd (Human VEGF-A 111): 0.29 nM
Kd (rat PDGF-B (PR-1645048)): ≤ 0.0052 nM
koff (rat PDGF-B (PR-1645048)): 5.2e-05 s⁻¹
kon (rat PDGF-B (PR-1645048)): ≥ 1e+07 M⁻¹ s⁻¹
